Reference: patent US7282556 (EMORY UNIVERSITY, dated 2007)
One block for each binder: values may come before it. Bridges are numbered along the chain shown (N, C = ends). Where no end group is shown, it is not given here.

Assays:
[1] = target: T1, SIRPα1-GST: extracellular domain of SIRPα1 fused to GST (UniProt P78324 31-373); assay: direct binding of synthetic peptide
T1 construct: extracellular domain; Produced in 293E cells as in Seiffert et al; also called SIRPα-GST; SIRP-GST; not shown: glutathione S-transferase (GST)
T1 sequence (P78324 31-373): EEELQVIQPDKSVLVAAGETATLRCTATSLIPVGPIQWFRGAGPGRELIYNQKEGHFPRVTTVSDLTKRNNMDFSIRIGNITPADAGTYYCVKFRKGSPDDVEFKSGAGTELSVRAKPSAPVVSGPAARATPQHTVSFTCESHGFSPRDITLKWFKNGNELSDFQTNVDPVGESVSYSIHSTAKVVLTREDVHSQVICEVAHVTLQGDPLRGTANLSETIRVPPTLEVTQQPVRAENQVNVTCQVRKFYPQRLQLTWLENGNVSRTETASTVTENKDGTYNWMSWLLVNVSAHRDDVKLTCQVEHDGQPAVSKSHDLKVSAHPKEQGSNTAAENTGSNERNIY

C5/D5 Fab = target: T2, C5/D5 Fab; assay: competition ELISA: C5/D5 Fab (1 µg/ml) on coated purified CD47 with increasing peptide
T2 construct: Prepared by papain digestion of C5/D5; also called C5/D5 Fab fragment
Protocol: Figure 5: FIG. 5 is a graph that illustrates the effect of synthetic peptide C5/D5.1 ([…]) (SEQ. ID NO: 2) and control peptide C5/D5.4 ([…]) (SEQ. ID NO: 34), C5/D5.11 ([…]) (SEQ. ID NO: 36) and C5/D5.12 ([…]) (SEQ. ID NO: 6) on binding of C5/D5 Fab to CD47. CD47 was purified from human PMN or RBC as previously described (Liu, et al., Journal of Biological Chemistry, 277(12): 10028-36, 2002). The experiments were performed by coating microtiter plates with purified CD47 (in 1% octylglucoside containing buffer, used as 1:50 dilution) for 2 hour (hr). After blocking, C5/D5 Fab (1 µg/ml) was added without or with increasing amount of peptides. C5/D5 Fab binding was detected by a peroxidase conjugated goat anti-mouse secondary antibody. The data represent the mean and the standard deviation of triplicate wells.
To confirm that peptide C5/D5.1 simulates the natural epitope of CD47 recognized by mAb C5/D5, experiments were performed to test if this peptide can compete with CD47 in binding to C5/D5. Purified human CD47 from PMN and RBC was used to coat microtiter plates followed by incubation with C5/D5 Fab (1 μg/ml) either in the absence or presence of increasing amount C5/D5.1 or other control peptides. […] In contrast, control peptides, including C5/D5.11 (SEQ ID NO:36) and C5/D5.12 (SEQ ID NO:6) had no inhibition at concentrations up to 10 mM (FIG. 5). […]

[2] = target: T1, SIRPα1-GST: extracellular domain of …; assay: plate binding assay, JAM-AP and SIRPα-GST

Binder: SSAKIEVSQLLK [linear CD47 peptide comprising SSAKIEVSQLLK (aa82-93 of SEQ ID NO: 9)]
binding result [1]: no binding

Binder: EVTELTREG [linear CD47 peptide comprising EVTELTREG (aa115-123 of SEQ ID NO: 9)]
binding result [1]: no binding

Now from value to binder:

IC50 (C5/D5 Fab): 3.8 mM
Binder: CERVIGTGWVRC (disulfide 1-12 (inferred)) [synthetic peptide C5/D5.1 (CERVIGTGWVRC)]

binding result [2]: no binding
B1: JAM-AP: extracellular domain of junctional adhesion molecule (JAM) fused to alkaline phosphatase (other, UniProt Q9Y624 28-238, looked up)
chain: SVTVHSSEPEVRIPENNPVKLSCAYSGFSSPRVEWKFDQGDTTRLVCYNNKITASYEDRVTFLPTGITFKSVTREDTGTYTCMVSEEGGNSYGEVKVKLIVLVPPSKPTVNIPSSATIGNRAVLTCSEQDGSPPSEYTWFKDGIVMPTNPKSTRAFSNSSYVLNPTTGELVFDPLSASDTGEYSCEARNGYGTPMTSNAVRMEAVERNVGV
notes: extracellular domain; Control AP fusion protein; not shown: alkaline phosphatase (as in CD47-AP)
